Results reported in publication PMC3149027, “Structural and functional basis for RNA cleavage by Ire1”.

T1: Ire1KR32 (Saccharomyces cerevisiae? ("yeast"), UniProt P32361 641-1115)
T1 sequence: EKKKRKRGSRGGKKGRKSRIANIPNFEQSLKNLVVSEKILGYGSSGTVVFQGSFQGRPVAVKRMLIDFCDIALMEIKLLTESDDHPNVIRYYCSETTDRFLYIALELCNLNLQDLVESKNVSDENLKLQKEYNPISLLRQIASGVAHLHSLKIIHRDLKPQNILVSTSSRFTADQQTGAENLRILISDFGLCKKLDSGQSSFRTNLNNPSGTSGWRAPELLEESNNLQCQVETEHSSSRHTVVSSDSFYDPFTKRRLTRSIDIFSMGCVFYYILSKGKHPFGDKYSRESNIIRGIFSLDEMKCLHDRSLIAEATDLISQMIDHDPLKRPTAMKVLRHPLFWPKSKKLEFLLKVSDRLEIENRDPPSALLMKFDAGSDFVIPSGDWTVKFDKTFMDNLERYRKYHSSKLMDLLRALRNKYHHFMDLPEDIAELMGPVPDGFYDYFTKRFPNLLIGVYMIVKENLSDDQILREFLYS


Key:
[1] = molecular target: Ire1KR32 (wild type) (yeast)
Ire1KR32 = molecular target: T1, Ire1KR32; test: competition (inhibition of 32P-HP21 cleavage); apparent Ki; 2 mM Mg2+, 2 mM ADP, 3 uM Ire1KR32; 20 mM HEPES pH 7.4, 70 mM NaCl, 5% glycerol, 2 mM Mg(CH3COO)2, 2 mM ADP, 4 mM DTT, 30 C; conditions: protein: recombinant; tags: GST removed with Prescission protease; label: none; single strand

| RNase activity (single-turnover cleavage of 32P-HP21) of 1.5 μM wild-type Ire1KR32 titrated with 0.1-15 μM Ire1KR32(H1061N); in trans activation, inhibition at excessive H1061N [1] [fold] | Molecule | Ki (Ire1KR32) [µM] |
| --- | --- | --- |
| 10 | Ire1KR32(H1061N) (domain or fragment) |  |
|  | CCGCAG (ssDNA, 2'-deoxy throughout) [dCdCdGdCdAdG (2'-deoxy-CCGCAG)] | 200 ± 50 |
